Among the data in article PMC6099927 are Kd values, retold here.

The series concerns the target Plasmodium falciparum lactate dehydrogenase (PfLDH) (Plasmodium falciparum) (UniProt Q27743). The experiment in a line: APTEC plate capture assay. Conditions: 2x PBS binding buffer (recombinant PfLDH), 1 h, streptavidin plate coated with DNA, PBST (0.1% Tween-20) washes, absorbance 570 nm; blood: 1:1 with PBS 0.5% ….

Sequence of Plasmodium falciparum lactate dehydrogenase (PfLDH) (Plasmodium falciparum) (Q27743 whole entry): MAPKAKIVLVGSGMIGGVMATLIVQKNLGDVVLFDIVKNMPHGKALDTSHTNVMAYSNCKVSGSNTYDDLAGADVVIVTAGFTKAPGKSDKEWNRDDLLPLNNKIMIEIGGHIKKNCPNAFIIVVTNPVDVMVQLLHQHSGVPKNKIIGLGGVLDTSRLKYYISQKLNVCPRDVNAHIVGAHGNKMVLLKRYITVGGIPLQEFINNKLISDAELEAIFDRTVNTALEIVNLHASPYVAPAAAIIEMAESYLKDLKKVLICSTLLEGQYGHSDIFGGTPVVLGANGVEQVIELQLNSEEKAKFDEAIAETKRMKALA

As to “GCAACAGAGCCCTATTCTGTCTCAGTCCACCGGGTTAGGAAACGCGAGTCAGT / CTGGGCGGTAGAACCATAGTGACCCAGCCGTCTACTTCCCTAACGCCTGCGTGAATAGGGCTCTGTTGC / CTGGGCGGTAGAACCATAGTGACCCAGCCGTCTACTTGATCTCAACTCAGTTACCCGGTGGACTGAGAC / CTGGGCGGTAGAACCATAGTGACCCAGCCGTCTACTTTCATCTGGGGCCTTTACTGACTCGCGTTTCCT / TAAGGCCCCAGATGATAAACCCAGGCCGGCCCT / TCGCTCGACAGAGATACTATTAGTACCAGGCCCGATAGGGCCGGCCTGGGTTT / TCGCAGGCGTTAGGGTTCGGGCCTGGTACTAAT / TACTGAGTTGAGATCTGTATCTCTGTCGAGCGA [prism with three aptamers]”, the Kd was found to be 1.38 nM.
